The target in this assay is T1, C-terminally truncated bovine AC9_(1250) (residues 1-1250 of AC9) (bovine, UniProt E1BM79 1-1250).
T1 construct: the purification is said to be identical to that of AC9; source: HEK293F cells, transient transfection (PEI), purified as AC9
T1 sequence (looked up): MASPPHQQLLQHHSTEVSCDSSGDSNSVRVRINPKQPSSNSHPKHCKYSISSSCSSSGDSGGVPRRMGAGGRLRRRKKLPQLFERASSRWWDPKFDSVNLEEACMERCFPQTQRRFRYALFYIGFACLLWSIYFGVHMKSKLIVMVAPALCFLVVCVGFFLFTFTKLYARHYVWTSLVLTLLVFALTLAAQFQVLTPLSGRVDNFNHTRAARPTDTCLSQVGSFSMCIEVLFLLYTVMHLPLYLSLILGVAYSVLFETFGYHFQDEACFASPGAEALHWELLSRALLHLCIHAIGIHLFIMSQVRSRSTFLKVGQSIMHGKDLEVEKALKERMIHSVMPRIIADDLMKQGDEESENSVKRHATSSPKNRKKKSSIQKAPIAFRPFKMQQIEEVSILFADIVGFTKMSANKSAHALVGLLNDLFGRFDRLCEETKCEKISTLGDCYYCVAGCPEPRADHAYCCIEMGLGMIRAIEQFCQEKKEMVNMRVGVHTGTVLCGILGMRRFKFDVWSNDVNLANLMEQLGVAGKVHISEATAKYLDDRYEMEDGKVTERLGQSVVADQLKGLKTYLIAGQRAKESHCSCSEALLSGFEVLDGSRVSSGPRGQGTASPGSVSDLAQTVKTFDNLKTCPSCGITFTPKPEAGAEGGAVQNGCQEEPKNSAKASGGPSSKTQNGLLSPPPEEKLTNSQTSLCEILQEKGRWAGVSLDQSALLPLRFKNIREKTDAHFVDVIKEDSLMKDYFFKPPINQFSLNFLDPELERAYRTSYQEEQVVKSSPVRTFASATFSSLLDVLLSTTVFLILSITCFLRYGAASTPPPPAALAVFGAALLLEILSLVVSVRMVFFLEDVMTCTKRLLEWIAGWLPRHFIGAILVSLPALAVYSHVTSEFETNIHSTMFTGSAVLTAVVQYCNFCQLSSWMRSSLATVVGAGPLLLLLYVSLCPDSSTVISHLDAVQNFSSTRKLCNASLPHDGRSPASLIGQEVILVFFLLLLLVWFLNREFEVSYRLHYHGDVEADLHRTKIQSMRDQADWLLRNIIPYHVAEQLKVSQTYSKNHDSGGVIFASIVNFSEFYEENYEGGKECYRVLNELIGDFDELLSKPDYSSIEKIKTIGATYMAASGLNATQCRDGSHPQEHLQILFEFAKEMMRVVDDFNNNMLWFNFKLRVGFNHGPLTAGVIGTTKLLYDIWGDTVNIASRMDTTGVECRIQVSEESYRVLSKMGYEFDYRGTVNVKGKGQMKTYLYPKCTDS
Nature of the assay: cryo-EM structure; AC9_(1250) at 5 mg/ml with 5 mM MnCl2, 0.5 mM MANT-GTP and a 2-fold molar excess of GTPγS-activated Gαs, 30 min at 4 °C; no forskolin; soluble part refined to 3.8 Å. As to conditions: both partners purified.

B1: bovine Gαs (G protein αs subunit), GTPγS-activated (natural protein, UniProt P04896-1 1-394, looked up)
chain: MGCLGNSKTEDQRNEEKAQREANKKIEKQLQKDKQVYRATHRLLLLGAGESGKSTIVKQMRILHVNGFNGEGGEEDPQAARSNSDGEKATKVQDIKNNLKEAIETIVAAMSNLVPPVELANPENQFRVDYILSVMNVPDFDFPPEFYEHAKALWEDEGVRACYERSNEYQLIDCAQYFLDKIDVIKQDDYVPSDQDLLRCRVLTSGIFETKFQVDKVNFHMFDVGGQRDERRKWIQCFNDVTAIIFVVASSSYNMVIREDNQTNRLQEALNLFKSIWNNRWLRTISVILFLNKQDLLAEKVLAGKSKIEDYFPEFARYTTPEDATPEPGEDPRVTRAKYFIRDEFLRISTASGDGRHYCYPHFTCAVDTENIRRVFNDCRDIIQRMHLRQYELL
notes: bovine Gαs, Uniprot ID P04896-1; also called G protein α subunit; source: High Five insect cells, baculovirus, purified (Ni-NTA, Superdex 200 SEC)
Take B1: the binding result is listed as “binds”.

For the origin of these results see PMC8873477, “Structural basis of adenylyl cyclase 9 activation” (Nature Communications, 2022).
